Legend:
Type in all cases: cell-based, mouse
[1] = test system: 2C-like genes (Zscan4, MuERV-L/MERVL, Dux) in ESCs (E14, R1); experiment: qPCR for 2C-like specific genes in ESCs; conditions: Dox-inducible expression of ETAA1-AAD
Experimental: (§1) All treatments including APH, HU, UV, ATRi, ATMi and Chk1i were added in to fresh ESC medium and the cells were kept in 37° C. and 3% 02 tension for overnight (16-17 hrs) unless mentioned in each particular result section. APH was used at various concentrations ranging from 0.3 uM to 6 uM that is mentioned in each experiment in order to induce mild to acute replication stress response. Similarly, HU was used at 0.1 mM-3 mM. ATMi (KU-55933) and ATRi (VE 822) were used at the concentration of 10 uM and 1 uM respectively. Moreover, Chk1i (UCN-01) at the concentration of 100 nM was used. UV radiation was performed at the dosage ranging from 2 to 10 J/m2. For induction of ETAA1-AAD expression, Dox was used at the concentration of 1 μg/mL for 48 hrs.
RNA was extracted using RNeasy mini kit (QIAGEN), quantified by NanoDrop spectrophotometer and cDNA was prepared from 2 μg total DNA-depleted RNA using SuperScript™ III reverse transcriptase kit (Invitrogen cat #18080-093) following manufacturer's instructions. qPCR assay performed based on standard protocol using 10× SsoFast™ EvaGreen® Supermix or later 1× LightCycler 480 SYBR Green I Master (Roche, 04707516001), 0.5 μM primer mix and 5 ng of cDNA. GAPDH was used as internal control to normalise the qPCR data following ΔΔCt method, 10 μM primer mix and a total amount of cDNA corresponding to 5 ng of starting RNA for each reaction.

[2] = test system: ATR pathway (γH2AX, CHK1, CHK2 phosphorylation); experiment: FACS and immunoblot for ATR pathway activation upon ETAA1-AAD overexpression; conditions: for number of γH2AX positive cells: versus empty vector (EV) infected ESCs
Text: (§2) ESCs were fixed and permeabilized using Cytoperm/Cytofix kit (BD Biosciences), and subsequently stained for one hour at room temperature with Alexa Fluor® 647 anti-H2AX-Phosphorylated (Ser139) antibody (Biolegend) or P-CHK1-PE conjugated antibody (cell signaling 12268). Cells were washed and acquired on a FACS Calibur instrument or Attune NxT (Thermo Fisher Scientific). For Emerald-GFP acquisition, cells were trypsinized, collected and subsequently acquired without fixation. Cell cycle profiles were acquired after incubation with DAPI (4′,6-diamidino-2-phenylindole) overnight. For Caspase3 FACS analysis after fixation and permeabilization, Cleaved Caspase3 antibody were used for one hr at RT followed by washes and one hr incubation in donkey anti rabbit secondary antibody. For Zscan4-Emerald-GFP acquisition cells were trypsinized, collected and subsequently acquired without fixation step.
The cells were trypsinized and washed with PBS and then lysed in RIPA buffer plus protease/phosphatase inhibitor cocktail (cell signaling, #5872), incubating for 30 minutes on a rotating wheel at +4° C. Lysates were sonicated with a Bioruptor Sonication System (UCD200) at high power for 3 cycles of 30 seconds with one minute breaks. Lysates were centrifuged at 13000 rpm for 20-30 minutes and clear supernatants were transferred to new tubes. The proteins were quantified using Bio-Rad protein assay and following manufacturer's instructions. For the detection of each protein, 35 μg of total protein extracts were loaded. Standard western blot was performed using following antibodies: ATR antibody (Cell Signaling 2790), Phoshpho-Chk1 antibody-S345 (Cell signaling 2348), Phoshpho-Chk1 antibody S317 (cell signaling 12302), Zscan4 antibody (Abcam ab4340), total Chk1 antibody (Santa Cruz 8408) and Chk2 antibody (Millipore 05-649), Anti-P53 (Cell Signalling, 2524S) and Anti-p-P53 (S15) (Cell Signalling, 12571S), Anti-Goat ALexa488 (Thermo Fisher Scientific, A-11055), Anti-Rabbit Cy3 (Jackson ImmunoResearch, 711-165-152), Anti-Mouse Alexa647 (Thermo Fisher Scientific, A-31571). […]

pZscan4-Emerald ESCs = experiment: FACS analysis of Zscan4-Emerald ESCs (Emerald-GFP positive cells)
Experimental: as §1
as §2, with “For Caspase3 FACS analysis after fixation and permeabilization, Cleaved Caspase3 antibody were used for one hr at RT followed by washes and one hr incubation in donkey anti rabbit secondary antibody. For Zscan4-Emerald-GFP acquisition cells were trypsinized, collected and subsequently acquired without fixation step.” left out

B1: ETAA1-AAD: ATR activating domain of Ewing's tumor-associated antigen 1, overexpressed in ESCs by lentivirus (SEQ ID NO: 2) (protein)
chain: VRQREQPPTAALCSKSNPEERYETPKRALKMETDSLSSSFSSPNDPDGQNDIFWDQNSPLTKQLGKGRKKQIYTTDSDEISHIVNRIAPQDEKPTTNSMETLDMETWIGETAIPCTPSVAKGKSRAKISCTKLKTQSQEEELMETKLAKQFDKNMETEELDVIQEQNKRNYDFTQ
[1]
  transcription of Zscan4, Dux and MERVL: transcriptional activation of Zscan4, Dux and MERVL
[2]; ATR activation through ETAA1 expression
  phosphorylation of H2AX, CHK1 and CHK2 in ESCs: leads to the phosphorylation of H2AX and CHK1 but not CHK2
[2]
  number of γH2AX positive cells: increase in the number of γH2AX cells
[2]; listed as ETAA1-AAD lentivirus
  number of γH2AX positive cells: increase in the number of γH2AX positive cell
pZscan4-Emerald ESCs; Dox-inducible expression of ETAA1-AAD
  Z+ population in ESCs culture: significant increase
pZscan4-Emerald ESCs; ETAA1-AAD lentivirus infected Zscan4-Emerald ESCs vs empty vector
  increase in the number of Zscan4-positive population in ESC culture: up to 3 fold
